Common to all, as to assay: cell-based or functional assay
The target in experiment [1] is T1, human Klotho β (human, UniProt Q86Z14 1-1044).
T1 sequence (looked up): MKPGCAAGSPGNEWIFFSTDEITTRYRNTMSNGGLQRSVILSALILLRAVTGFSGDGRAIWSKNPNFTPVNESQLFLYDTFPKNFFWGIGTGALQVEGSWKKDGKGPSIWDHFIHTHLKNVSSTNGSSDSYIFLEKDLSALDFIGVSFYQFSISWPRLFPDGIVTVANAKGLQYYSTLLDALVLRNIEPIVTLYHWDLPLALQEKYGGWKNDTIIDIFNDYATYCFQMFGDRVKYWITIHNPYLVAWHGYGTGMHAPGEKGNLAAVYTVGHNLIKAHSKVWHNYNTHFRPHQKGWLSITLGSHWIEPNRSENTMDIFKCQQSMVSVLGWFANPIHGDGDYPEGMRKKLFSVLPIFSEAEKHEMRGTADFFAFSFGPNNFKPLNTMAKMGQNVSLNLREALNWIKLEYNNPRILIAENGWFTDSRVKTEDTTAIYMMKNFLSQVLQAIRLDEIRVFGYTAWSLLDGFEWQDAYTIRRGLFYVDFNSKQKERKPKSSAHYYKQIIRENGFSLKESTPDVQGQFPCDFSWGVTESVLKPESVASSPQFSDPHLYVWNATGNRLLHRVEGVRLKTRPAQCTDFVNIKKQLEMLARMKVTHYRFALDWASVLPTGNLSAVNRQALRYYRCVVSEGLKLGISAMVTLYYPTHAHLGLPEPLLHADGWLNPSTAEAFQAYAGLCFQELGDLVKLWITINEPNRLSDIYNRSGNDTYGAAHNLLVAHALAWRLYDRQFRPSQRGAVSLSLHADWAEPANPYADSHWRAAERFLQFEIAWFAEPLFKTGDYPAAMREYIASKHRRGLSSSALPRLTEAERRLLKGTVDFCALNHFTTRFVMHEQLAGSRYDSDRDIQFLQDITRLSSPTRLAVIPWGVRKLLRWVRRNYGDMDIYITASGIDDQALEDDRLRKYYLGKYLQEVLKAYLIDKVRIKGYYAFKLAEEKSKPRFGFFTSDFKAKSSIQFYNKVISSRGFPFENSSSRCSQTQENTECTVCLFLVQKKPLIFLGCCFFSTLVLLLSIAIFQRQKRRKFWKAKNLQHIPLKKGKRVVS

Experiment [2] addresses T1, human Klotho β. This is another data set of the same source.
Experiment [3] concerns the target T1, human Klotho β. This is another data set of the same source.
Experiment [4] has as its target T1, human Klotho β. The source holds these as a separate data set.
Experiment [5] addresses T1, human Klotho β. This is another data set of the same source.

Consider 30 molecules from patent US20190142963A1 (INDIANA UNIVERSITY RESEARCH AND TECHNOLOGY, published 2019).

Like-named read-outs stand apart in the source and are kept apart here. Non-standard residues stand in square brackets, D forms with d. No end group written: not given here.

On to “FGF19 169-194 alanine mutant P190 (from UniProt O95750 191-216) (peptide)”, for which the IC-50 of antagonism of FGF21 (pErk1/2, 293 HEK hKLB cells) with human Klotho β [1] is above 2 µM.
For the molecule PPDVGSSDPLSMVGASQGRSPSYAS [FGF21 25mer A15], in the experiment with human Klotho β [2], the “% max activity of antagonism of FGF21 (pErk1/2, 293 HEK hKLB cells)” value (“% max activity of antagonism of FGF21” for short) amounted to 93.9% and the “IC-50 of antagonism of FGF21 (pErk1/2, 293 HEK hKLB cells)” value (shortened to “IC-50 of antagonism of FGF21”) was found to be 134 nM. The “IC-50 of antagonism of FGF21” value with human Klotho β [3] came out at 0.12 µM.
Take PPDVGASDPLSMVGPSQGRSPSYAS [FGF21 25mer A6]: in the experiment with human Klotho β [2], the “% max activity of antagonism of FGF21” value is 89.2% and the “IC-50 of antagonism of FGF21” value stood at 2.65 µM. The “IC-50 of antagonism of FGF21” value with human Klotho β [4] worked out at 2.44 µM.
In the case of PLETDSMDPFGLVTGLEAVRSPSFEA [FGF19 169-194 K194A], in the experiment with human Klotho β [3], the “IC-50 of antagonism of FGF21” value came out at 0.005 µM.
PPDVGSSDPLSMVGPSQGRSPSYAA [FGF21 25mer A25]: the “% max activity of antagonism of FGF21” value with human Klotho β [2] is 99%. The “IC-50 of antagonism of FGF21” value amounted to 45 nM in the experiment with human Klotho β [2] and 0.06 µM with human Klotho β [3].
In the same order, the values of APDVGSSDPLSMVGPSQGRSPSYAS [FGF21 25mer A1] are 100%, 33 nM and 0.39 µM.
In the same order, the values of PPDVGSSDPLSMVGPSQGASPSYAS [FGF21 25mer A19] are 100%, 102 nM and 0.1 µM.
Take PPDVGSSDPLSMVGPSQGRS[dP]SYAS-NH2 [FGF21 C25 d21]: in the experiment with human Klotho β [5], the “% Activity vs C25” value is 3.8% and the “IC50 of antagonism of FGF21 (assay of Example 1)” value (“IC50 of antagonism of FGF21” below) was found to be 7800 nM.
Take PADVGSSDPLSMVGPSQGRSPSYAS [FGF21 25mer A2]: in the experiment with human Klotho β [2], the “% max activity of antagonism of FGF21” value was found to be 98.5% and the “IC-50 of antagonism of FGF21” value was determined as 137 nM. In the experiment with human Klotho β [3], the “IC-50 of antagonism of FGF21” value was 0.62 µM.
For PPDVG[dS]SDPLSMVGPSQGRSPSYAS-NH2 [FGF21 C25 d6], in the experiment with human Klotho β [5], the “% Activity vs C25” value was determined as 32.5% and the “IC50 of antagonism of FGF21” value turned out to be 1980 nM.
In the same order, the values of PPDVGSSDPLSMVG[dP]SQGRSPSYAS-NH2 [FGF21 C25 d15] are 66.8% and 375 nM.
Regarding PPDVGSSDPLAMVGPSQGRSPSYAS [FGF21 25mer A11], in the experiment with human Klotho β [2], the “% max activity of antagonism of FGF21” value came to 98%. For the same molecule, the “IC-50 of antagonism of FGF21” value in the experiment with human Klotho β [2] came to 102 nM; with human Klotho β [3], 0.15 µM.
In the same order, the values of PPDVGSSDPLSMVGPSQARSPSYAS [FGF21 25mer A18] are 103%, 139 nM and 0.15 µM.
Regarding PPDVGSSDPLSMVGPSQGR[dS]PSYAS-NH2 [FGF21 C25 d20], in the experiment with human Klotho β [5], the “% Activity vs C25” value is 2.3% and the “IC50 of antagonism of FGF21” value stood at 33700 nM.
In the same order, the values of P[dP]DVGSSDPLSMVGPSQGRSPSYAS-NH2 [FGF21 C25 d2] are 7.61% and 4720 nM.
In the same order, the values of PPDVGSSDPLSMVGPSQGRSPSYA[dS]-NH2 [FGF21 C25 d25] are 119% and 264 nM.
Turning to PPDVASSDPLSMVGPSQGRSPSYAS [FGF21 25mer A5], in the experiment with human Klotho β [2], the “% max activity of antagonism of FGF21” value turned out to be 102%. In addition, the “IC-50 of antagonism of FGF21” value in the experiment with human Klotho β [2] turned out to be 90.1 nM; with human Klotho β [3], 0.09 µM.
In the same order, the values of PPDVGSSDPLSMVAPSQGRSPSYAS [FGF21 25mer A14] are 97.7%, 136 nM and 0.13 µM.
With PPDVGSSDPLSMVGPS[dQ]GRSPSYAS-NH2 [FGF21 C25 d17], in the experiment with human Klotho β [5], the “% Activity vs C25” value worked out at 90.3% and the “IC50 of antagonism of FGF21” value stood at 262 nM.
With PPDVGSSDPASMVGPSQGRSPSYAS [FGF21 25mer A10], the “% max activity of antagonism of FGF21” value with human Klotho β [2] came to 76%. Moreover, the “IC-50 of antagonism of FGF21” value in the experiment with human Klotho β [2] was 3.32 µM; with human Klotho β [4], 2.75 µM.
Turning to PPDAGSSDPLSMVGPSQGRSPSYAS [FGF21 25mer A4], in the experiment with human Klotho β [2], the “% max activity of antagonism of FGF21” value was 63.6% and the “IC-50 of antagonism of FGF21” value came to 5.93 µM. Moreover, the “IC-50 of antagonism of FGF21” value with human Klotho β [4] was 2.69 µM.
Consider PPDVGSSDPLSMVGPAQGRSPSYAS [FGF21 25mer A16], for which the “% max activity of antagonism of FGF21” value with human Klotho β [2] amounted to 101%. The “IC-50 of antagonism of FGF21” value with human Klotho β [2] is 120 nM; with human Klotho β [3] it was 0.11 µM.
For PPDVGSSDPLSMVGPSAGRSPSYAS [FGF21 25mer A17], in the experiment with human Klotho β [2], the “% max activity of antagonism of FGF21” value stood at 99.7% and the “IC-50 of antagonism of FGF21” value was 139 nM. Further, the “IC-50 of antagonism of FGF21” value in the experiment with human Klotho β [3] is 0.13 µM.
As to PPDVGSSDPLSMVGPSQGRSPSY[dA]S-NH2 [FGF21 C25 d24], in the experiment with human Klotho β [5], the “% Activity vs C25” value is 32.3% and the “IC50 of antagonism of FGF21” value stood at 1130 nM.
Take PPDVGSSDPLSMAGPSQGRSPSYAS [FGF21 25mer A13]: in the experiment with human Klotho β [2], the “% max activity of antagonism of FGF21” value came out at 87.9% and the “IC-50 of antagonism of FGF21” value came to 2.11 µM. Besides, in the experiment with human Klotho β [4], the “IC-50 of antagonism of FGF21” value was 4.6 µM.
Consider PPDVGSSDPLSMVGPSQGRAPSYAS [FGF21 25mer A20], for which, in the experiment with human Klotho β [2], the “% max activity of antagonism of FGF21” value stood at 73.5% and the “IC-50 of antagonism of FGF21” value is 3.23 µM. Besides, the “IC-50 of antagonism of FGF21” value with human Klotho β [4] came out at 2.21 µM.
Take [dP]PDVGSSDPLSMVGPSQGRSPSYAS-NH2 [FGF21 C25 d1]: in the experiment with human Klotho β [5], the “% Activity vs C25” value worked out at 54.2% and the “IC50 of antagonism of FGF21” value is 877 nM.
With PPDVGSADPLSMVGPSQGRSPSYAS [FGF21 25mer A7], in the experiment with human Klotho β [2], the “% max activity of antagonism of FGF21” value stood at 94.5% and the “IC-50 of antagonism of FGF21” value was found to be 359 nM. Besides, the “IC-50 of antagonism of FGF21” value with human Klotho β [3] came to 0.36 µM.
For the molecule PPDVGSSDPLSMVGP[dS]QGRSPSYAS-NH2 [FGF21 C25 d16], in the experiment with human Klotho β [5], the “% Activity vs C25” value turned out to be 46% and the “IC50 of antagonism of FGF21” value was determined as 531 nM.
In the same order, the values of PP[dD]VGSSDPLSMVGPSQGRSPSYAS-NH2 [FGF21 C25 d3] are 15.6% and 6100 nM.
